Laboratory results taken from paper PMC7587441, “Plasmodium falciparum Apicomplexan-Specific Glucosamine-6-Phosphate N-Acetyltransferase Is Key for Amino Sugar Metabolism and Asexual Blood Stage Development” (mBio, 2020).

Substrate: CC(=O)SCCNC(=O)CCNC(=O)[C@H](O)C(C)(C)COP(=O)(O)OP(=O)(O)OC[C@H]1O[C@@H](n2cnc3c(N)ncnc32)[C@H](O)[C@@H]1OP(=O)(O)O
Test: DTNB colorimetric assay of CoA release
Format: biochemical, Cryptosporidium parvum
Details: 2000 μM GlcN6P fixed, 25 mM Tris-HCl, 150 mM NaCl, pH 7.2, room temperature
Source text: DTNB colorimetric assay of CoA release on CpGNA1

B1: CpGNA1 (Cryptosporidium parvum Iowa II) (protein)
chain: MISSFEVRKATIDDYFELRNLICDVTRCTETLSREQAEERFRYNTYHPYCLVDTENGRIVGYAGFYIIPHLGRKNDSRIEHVIISKEYRNRGLGRLLCKQIIEDAKNKFNCGRIDLTVESHIAKKLYSSLEFEKVNTEVMRNSFLDLTPKSD
notes: N-terminal GST tag kept (not cleaved), pGEX-6P-1, codon-optimized
- Km: 531 ± 80.33 µM
